Among the data in patent publication US20070142283A1 are cross-reactivity values, retold here.

The assay has as its target recombinant FGF-2 (rFGF-2) of SEQ ID NO: 2 (bovine) (UniProt P03969). The assay is described as follows: commercial ELISA for human FGF-2 (R&D Systems), cross-reactivity against human FGF-2.
Sequence of UniProt P03969 (P03969 10-155 limits assumed): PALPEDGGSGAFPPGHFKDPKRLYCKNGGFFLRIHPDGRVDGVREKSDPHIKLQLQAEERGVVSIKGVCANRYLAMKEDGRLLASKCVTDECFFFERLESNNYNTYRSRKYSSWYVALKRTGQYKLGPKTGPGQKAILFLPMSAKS

As to “commercially available ELISA (R&D Systems, Minneapolis Minn.) that was marketed for analysis of human FGF-2 (antibody)”, the cross-reactivity is 100%.
